For the test, the target named is extracellular soluble part of EGFR (sEGFR) (UniProt P00533). The experiment in a line: SPR.

What is called Kd is the free concentration of one partner at which half of the binding sites on the other are occupied at equilibrium, for simple one-to-one binding. Low readings indicate a tighter complex, high ones a looser complex. As for EGF (ligand), the Kd was determined as 60 nM.

The values are drawn from PMC5776806.
